The values that follow come from patent US7193044.

For data set [1], the system named is T1, Full-length BAD (wildtype), in vitro translated, 35S-methionine labelled, buffer control.
T1 sequence: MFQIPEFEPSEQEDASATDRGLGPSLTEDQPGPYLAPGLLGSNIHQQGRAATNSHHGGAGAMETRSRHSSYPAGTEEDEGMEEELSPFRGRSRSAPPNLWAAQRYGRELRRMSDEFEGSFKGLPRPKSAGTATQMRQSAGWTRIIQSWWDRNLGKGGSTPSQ

Data set [2] has as its system T2, GST-BAD (GST-tagged shorter murine BAD).
T2 sequence: T1 sequence

In data set [3] the test system is GST-BAD S112A [GST: P08515].
The subject of data set [4] is GST-BAD S112A/S136A/S155A.
Data set [5] has as its system GST-BAD S112A/S136A.
In data set [6] the test system is GST-BAD S136A.
The test system of data set [7] is GST-BAD S155A.

Turning to “PKA (cAMP-dependent protein kinase), catalytic subunit from bovine heart”, the “gel-mobility shift after incubation with PKA and ATP” value in data set [1] is listed as “phosphorylation by PKA induced a gel-mobility shift of wild-type BAD”. The “in vitro phosphorylation (32P incorporation, autoradiography)” value is “the shorter murine BAD, and BAD mutants containing mutations at the serine at a position corresponding to Ser112 and/or Ser136, were good in vitro substrates for PKA” in data set [2]; “the shorter murine BAD, and BAD mutants containing mutations at the serine at a position corresponding to Ser112 and/or Ser136, were good in vitro substrates for PKA” in data set [3]; “abolished phosphorylation of the triple mutant GST-BAD S112A/S135A/S155A” in data set [4]; “the shorter murine BAD, and BAD mutants containing mutations at the serine at a position corresponding to Ser112 and/or Ser136, were good in vitro substrates for PKA” in data set [5]; “the shorter murine BAD, and BAD mutants containing mutations at the serine at a position corresponding to Ser112 and/or Ser136, were good in vitro substrates for PKA” in data set [6]; “dramatically reduced the phosphorylation of the single mutant GST-BAD S155A” in data set [7].
